{"source": "patent US8637739B2", "about": "“Anti-nematode peptides and methods of use thereof” (Pioneer Hi Bred International Inc, priority 2011, dated 2014)", "molecules": {"B1": {"name": "RX025: small, active 25 kDa Sphingobacterium spiritivorum protein; putative twin arginine translocation pathway signal protein (protein, listed as Sphingobacterium spiritivorum)", "chain": "MHRREALQRVALLMGGTVIGANLFLEGCSRSASKDTAKLFEKDSVNFLGDLAEAILPKTSTPGAKEAGVGEFIPVMIRDCYADTEQKVFLDGINTVDERAKKEFGKKFQELSKEDQTKFVNILDKEASEYNAKQAEATKAQREKDALKQNEMYRVPKSDPPHWFTMFKQLTLTGFFTSELGATKALRYVKIPGKFDGNYPYKKGEHAWA"}}, "test_system": "C. elegans", "assay": "C. elegans feeding assay", "assay_type": "in vivo, Caenorhabditis elegans", "method": "The 75G5 strain was obtained from a biodiverse collection of bacterial strains. The strain was grown in Tryptic soy medium overnight at 20° C., with shaking at 225 rpm. 5 to 30 μL of the liquid culture was added into assay wells in 96-well plates. Each assay well contained 120 μL of liquid with ˜50 L1 staged C. elegans, 30 μg/mL tetracycline, 30 μg/mL chloramphenicol, and S-medium. E. coli strain OP50 was used as a negative control. Forty-eight hours later, the assay plates were scored under a microscope by checking the worm's growth and development.\nTo further characterize the nematicidal activity, the 75G5 strain was cultured in 50 ml Tryptic soy medium at 20° C. for 18 h, with 225 rpm shaking. The cell pellet was collected after centrifugation at 700 rpm and then stored at −80 C. Total protein was extracted from the cell pellet using the B-PER II Bacterial Protein Extraction Reagent from Thermo. The lysate was centrifuged twice at 10,000 rpm and the final supernatant was collected as the total protein sample.\nThe expression constructs were then transformed into E. coli TOP10 strain with carbenicillin selection. For protein expression, an E. coli overnight culture was diluted by 50 fold and grown at 37° C. for 2.5 hours (to OD600 ˜0.5). Protein expression was induced by adding 0.8 mM IPTG and the culture was grown for another 5 hours at 30° C. […]", "data": [{"molecule": "B1", "values": [{"measurement": "nematicidal activity (worm development)", "setting": "E. coli TOP10 strains expressing the RX025 gene from pMAL (MBP fusion) and pQE80L, IPTG induced", "value": "inhibited worm development, arresting worms at the L1 stage"}, {"measurement": "nematicidal activity of purified protein bands", "setting": "proteins in pooled Mono Q/Mono S fractions of strain 75G5 membrane associated proteins", "value": "active"}]}]}
